Target: stressed NISTmAb monoclonal antibody
Test: AUC; sedimentation velocity at 50,000 rpm and 20°C; c(s) analysis in SEDFIT, by command line operation and repeated by manual operation on the same data; stressed, partially denatured sample

percent of signal in higher aggregates (command line analysis): 51.8%
percent of signal in higher aggregates (manual analysis): 51.7%
percent of signal in the dimer peak: 12.5%
stoichiometry N: 2
Substance: stressed NISTmAb monoclonal antibody

— paper PMC10503714
